Results from patent CN116554324A (SANYOU BIO INC, dated 2023).

T1: Mus4-1BB-hFc (mouse; human, UniProt P20334 24-187)
T1 construct: range 24-187; also called 鼠4-1BB抗原蛋白Mus4-1BB-hFc; not shown: Fc tag made by the same method as for hu4-1BB-hFc (human IgG1 Fc fragment)
T1 sequence (looked up): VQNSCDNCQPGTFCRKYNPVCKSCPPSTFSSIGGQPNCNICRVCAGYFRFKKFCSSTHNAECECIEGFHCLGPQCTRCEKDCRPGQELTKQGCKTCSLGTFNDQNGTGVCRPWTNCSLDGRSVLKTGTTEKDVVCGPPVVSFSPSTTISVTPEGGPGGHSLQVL


How the values were obtained:
Mus4-1BB-hFc = biological target: T1, Mus4-1BB-hFc; assay: ELISA, Mus4-1BB-hFc coated at 2 μg/mL, anti-human kappa+lambda-HRP
hu4-1BB-His = biological target: T2, hu4-1BB-His (human, UniProt Q07011 24-186); assay: ELISA, hu4-1BB-His coated at 2 μg/mL, anti-human IgG Fc-HRP
T2 construct: range 24-186; Expressed in ExpiCHO and purified on Ni beads; also called 抗原蛋白hu4-1BB-His; 人4-1BB抗原蛋白; not shown: C-terminal His tag

生物素化的hu4-1BB-hFc = biological target: T3, 生物素化的hu4-1BB-hFc (human, UniProt Q07011 24-186, EZ-Link Sulfo-NHS-LC-biotin label; the sites are not stated); assay: ELISA
T3 construct: range 24-186; also called 生物素标记的hu4-1BB-hFc抗原蛋白; biotinylated hu4-1BB-hFc; not shown: human IgG1 Fc fragment fused at the C-terminus

hu4-1BB-hFc = biological target: T4, hu4-1BB-hFc (human, UniProt Q07011 24-186); assay: ELISA
T4 construct: range 24-186; also called 4-1BB-Fc; not shown: human IgG1 Fc fragment fused at the C-terminus

[1] = biological target: T5, 人4-1BB (Uniprot编号Q07011), expressed on cells (human, UniProt Q07011 24-255); assay: flow cytometry on hu4-1BB-CHO cells
T5 construct: whole, on cells; also called hu4-1BB-CHO; 人4-1BB过表达细胞
T5 sequence (Q07011 24-255): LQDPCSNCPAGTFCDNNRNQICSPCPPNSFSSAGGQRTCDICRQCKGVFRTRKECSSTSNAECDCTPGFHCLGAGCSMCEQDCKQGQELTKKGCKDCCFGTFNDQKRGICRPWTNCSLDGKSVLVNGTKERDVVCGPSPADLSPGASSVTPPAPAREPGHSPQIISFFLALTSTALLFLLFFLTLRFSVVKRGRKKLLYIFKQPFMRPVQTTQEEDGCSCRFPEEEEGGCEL

Binder | binding result (Mus4-1BB-hFc) | EC50 (hu4-1BB-His) | binding result (生物素化的hu4-1BB-hFc) | binding result (hu4-1BB-hFc) | binding result [1] | binding result (hu4-1BB-His)
99-2-35 (antibody, human IgG4 S228P, kappa, V domains shown, also called 抗体99-2-35; 母本抗体99-2-35) VH: EVQLLESGGGLVQPGGSLRLSCAASGFTFSSYEMNWVRQAPGKGLEWVSYISSSGSTIYYADSVKGRFTISRDNAKNSLYLQMNSLRAEDTAVYYCARDFNGGYSYYPIAFDIWGQGTMVTVSS VL: EIVLTQSPATLSLSPGERATLSCRASQSVSSYLAWYQQKPGQAPRLLIYDASNRATGIPARFSGSGSGTDFTLTISSLEPEDFAVYYCQQRSNWPPMYTFGQGTKLEIKR | binds | 0.35 µg/mL | – | – | – | –
Ag10058 (antibody, human IgG4 S228P, kappa, V domains shown, also called 阳性对照抗体Ag10058) VH: EVQLVESGGGLVQPGGSLRLSCAASGFSLSTSGVGVGWIRQAPGKGLEWLALIDWDDDKYYSPSLKSRLTISRDNSKNTLYLQLNSLRAEDTAVYYCARGGSDTVLGDWFAYWGQGTLVTVSS VL: DIQLTQSPSSLSASVGDRVTITCRASQSVSPYLAWYQQKPGKAPKLLIYDASSLESGVPSRFSGSGSGTDFTLTISSLQPEDFATYYCQQGYSLWTFGQGTKVEIKR | – | – | binds | binds | – | –

Continued, values first:

binding result (Mus4-1BB-hFc) | EC50 (hu4-1BB-His) | binding result (生物素化的hu4-1BB-hFc) | binding result (hu4-1BB-hFc) | binding result [1] | binding result (hu4-1BB-His) | Binder
binds | 0.411 µg/mL | – | – | – | – | 99-2-17 (antibody, human IgG4 S228P, lambda, V domains shown, also called 抗体99-2-17; 母本抗体99-2-17) VH: QVQLVQSGGGLVQPGGSLRLSCSASGFTFSSYAMHWVRQAPGKGLEYVSAISSNGGSTYYADSVKGRFTISRDNSKNTLYLQMSSLRAEDTAVYYCVKGSGWSPIDAFDIWGQGTMVTVSS VL: QSALTQPPSVSGAPGQRVTISCTGSSSNIGAGYDVHWYQQLPGTAPKLLIYGNSNRPSGVPDRFSGSKSGTSASLAITGLQAEDEADYYCQSYDSSLSGSGAVFGGGTQLTVLG
– | – | binds | binds | binds | binds | Ag10131 (antibody, human IgG4 S228P, kappa, V domains shown, also called 阳性对照抗体Ag10131; 对照抗体Ag10131) VH: EVQLVESGGGLVQPGGSLRLSCAASGFSLSTGGVGVGWIRQAPGKGLEWLALIDWADDKYYSPSLKSRLTISRDNSKNTLYLQLNSLRAEDTAVYYCARGGSDTVIGDWFAYWGQGTLVTVSS VL: DIQLTQSPSSLSASVGDRVTITCRASQSIGSYLAWYQQKPGKAPKLLIYDASNLETGVPSRFSGSGSGTDFTLTISSLQPEDFATYYCQQGYYLWTFGQGTKVEIKR
